# Assay results reported in publication PMC8326117 (International Journal of Biological Sciences, 2021).
# Molecular target: SARS-CoV-2 S-protein RBD (SARS-CoV-2, UniProt P0DTC2)
# Assay: SPR
# Details: both partners purified
binder,measurement,value
KKKKKKDKFNHEAEDLFY (also called 6K-modified AYn1 peptide) [S-protein neutralizing peptide AYn1],Kd,95.6 nM
